Reference: patent publication US20080267971A1 (published 2008)
Changes are numbered by the printed parent chain.

T1: mouse Angiopoietin-2 (mouse, UniProt O35608 19-496)
T1 construct: Used as conditioned medium of transfectants; also called mAng-2; mouse Ang-2
T1 sequence: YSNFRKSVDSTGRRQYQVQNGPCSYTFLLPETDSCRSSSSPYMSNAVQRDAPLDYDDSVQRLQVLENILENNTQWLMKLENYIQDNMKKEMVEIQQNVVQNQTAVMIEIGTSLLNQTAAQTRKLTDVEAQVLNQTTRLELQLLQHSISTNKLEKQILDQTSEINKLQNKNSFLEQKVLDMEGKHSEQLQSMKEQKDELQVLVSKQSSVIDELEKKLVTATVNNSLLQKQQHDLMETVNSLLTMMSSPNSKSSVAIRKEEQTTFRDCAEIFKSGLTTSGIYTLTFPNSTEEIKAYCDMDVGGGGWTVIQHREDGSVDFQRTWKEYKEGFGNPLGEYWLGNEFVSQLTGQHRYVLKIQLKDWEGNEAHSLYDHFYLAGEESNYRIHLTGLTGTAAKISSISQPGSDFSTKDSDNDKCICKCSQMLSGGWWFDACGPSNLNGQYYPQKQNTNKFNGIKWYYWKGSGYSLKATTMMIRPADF

T2: human Ang-2 H375Q (human, UniProt O15123 19-496)
T2 sequence: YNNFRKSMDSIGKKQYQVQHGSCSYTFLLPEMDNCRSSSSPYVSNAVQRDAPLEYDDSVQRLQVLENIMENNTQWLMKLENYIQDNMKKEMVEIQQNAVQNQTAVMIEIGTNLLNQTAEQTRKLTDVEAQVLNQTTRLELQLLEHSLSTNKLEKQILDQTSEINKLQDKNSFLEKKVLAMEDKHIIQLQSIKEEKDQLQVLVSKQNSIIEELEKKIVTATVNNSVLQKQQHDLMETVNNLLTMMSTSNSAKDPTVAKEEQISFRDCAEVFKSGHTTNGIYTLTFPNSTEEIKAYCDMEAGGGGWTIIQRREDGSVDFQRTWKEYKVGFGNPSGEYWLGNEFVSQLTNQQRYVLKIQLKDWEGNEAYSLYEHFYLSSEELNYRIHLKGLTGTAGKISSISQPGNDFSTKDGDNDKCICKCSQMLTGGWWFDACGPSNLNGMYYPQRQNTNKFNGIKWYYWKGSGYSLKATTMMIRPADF

T3: human Angiopoietin-1 (human, UniProt Q15389 20-498, limits assumed)
T3 construct: Bought recombinant protein (R&D Systems 293-AN-025/CF) or supernatant of transfected 293F cells; also called Ang-1; recombinant Ang-1
T3 sequence: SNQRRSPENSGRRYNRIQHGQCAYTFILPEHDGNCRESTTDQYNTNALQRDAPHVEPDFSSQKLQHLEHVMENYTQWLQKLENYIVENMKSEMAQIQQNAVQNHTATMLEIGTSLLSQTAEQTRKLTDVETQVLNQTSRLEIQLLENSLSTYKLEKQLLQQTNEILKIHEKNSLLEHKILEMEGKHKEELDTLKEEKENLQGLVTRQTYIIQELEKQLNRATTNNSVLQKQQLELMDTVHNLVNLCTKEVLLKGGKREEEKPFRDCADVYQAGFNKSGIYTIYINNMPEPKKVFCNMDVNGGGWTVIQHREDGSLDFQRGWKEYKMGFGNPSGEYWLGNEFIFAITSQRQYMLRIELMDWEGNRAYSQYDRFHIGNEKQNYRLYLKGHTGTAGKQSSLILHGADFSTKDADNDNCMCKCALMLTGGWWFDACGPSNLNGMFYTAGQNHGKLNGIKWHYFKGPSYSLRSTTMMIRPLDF

T4: human Angiopoietin-2 (human, UniProt O15123 19-496)
T4 construct: Mostly bought recombinant protein (R&D Systems 623-AM/CF, 623-AN; biotinylated BT623) or supernatant of transfected 293F cells; also called Ang-2; rhAng-2
T4 sequence: T2 sequence with Q356H

B1: mAb 5.86.1 (antibody, V domains shown)
VH: QVQLVQSGAEVKKPGASVKVSCKASGYTFTGYHMYWVRQAPGQGLEWLGWINPNSGGTNYAQKFQGRVTMTRDTSISTAYMELSRLRSDDTAVYYCVRDQGIAAAGPFDYWCQGTLVTVSS
VL: DIRMTQSPSSLSASVGDRVTITCRASQRISTYLNWYQQKPGKAPKFLIYAASSLQSGVPSRFSGSGSGTDFTLTISSLQPEDFATYYCQQSYTTPFTFGPGTKVDIKR
notes: Human hybridoma IgG (XenoMouse); also called x5.86
B2: mAb 5.83.1 (antibody, V domains shown)
VH: not shown
VL: EIVMTQSPATLSVSPGERATLSCRASQSLISNLAWYQQKPGQAPRLLIFGASTRATGIPARFSGSGSGTEFTLTISSLQSEDFAVYYCHQYNNWWTFGQGTKVEIKR
notes: Human hybridoma IgG (XenoMouse); also called x5.83
B3: mAb 5.13.1 (antibody, V domains shown)
VH: EVQLVESGGGLVQPGGSLRLSCAASGFTFSSYWMSWVRQAPGKGLEWVANIKQDGSEKYYVDSVKGRFTISRDNAKNSLYLQMNSLRAEDTAVYYCARDPGIAVAGPFDYWGQGTLVTVSS
VL: B2 VL with L29V, I30S, F49Y, H89Q, N93H
notes: Human hybridoma IgG (XenoMouse); also called x5.13
B4: mAb 5.88.3 (antibody, V domains shown)
VH: EVQMVESGGGLVQPGGSLRLSCAASGFTLRSYWMSWVRQAPGKGLEWVANIKEDGSEKYHVDSVKGRFTISRDNAENSLFLQMSSLRAEDTAVYYCARDMEASAGLFDYWGQGTLVTVSS
VL: B2 VL with T20I, L29I, I30S, F49Y, H89Q, N93Y
notes: Human hybridoma IgG (XenoMouse); also called x5.88
B5: mAb 5.54.1 (antibody, V domains shown)
VH: not shown
VL: B2 VL with V85I
notes: Human hybridoma IgG (XenoMouse); also called x5.54
B6: mAb 5.101.1 (antibody, V domains shown)
VH: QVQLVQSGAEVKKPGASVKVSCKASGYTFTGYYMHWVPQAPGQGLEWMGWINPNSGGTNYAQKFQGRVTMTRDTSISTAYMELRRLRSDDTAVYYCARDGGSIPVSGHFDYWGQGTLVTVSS
VL: B2 VL
notes: Human hybridoma IgG (XenoMouse); also called x5.101
B7: mAb 5.62.1 (antibody, V domains shown)
VH: B3 VH
VL: B2 VL with L29V, I30S, F49Y, S52F, H89Q, N93H, E104G
notes: Human hybridoma IgG (XenoMouse); also called x5.62
B8: mAb 3.3.2 (antibody, V domains shown)
VH: B3 VH with A24V, P100Q
VL: B2 VL with S28T, L29V, I30S, N32D, F49Y, T53I, Y87S, H89Q, N92Y
notes: Human hybridoma IgG (XenoMouse); also called 3.3.1; x3.3
B9: mAb 5.56.1 (antibody, V domains shown)
VH: QVQLVESGGGVVQPGRSLRLSCAASGFTFSSYGMHWVRQAPGKGLEWVAVIWYDGSNKYYADSVKGRFTISRDNSKNTLYLQMNSLRAEDTAVYYCAREDNWNFYFDYWGQGTLVTVSS
VL: DIQMTQSPSSLSASVGDRVTITCRASQGISYYLAWYQQKPGKVPKLLIYAASTLQSGVPSRFSGSGSGTDFTLTISSLQPEDVATYYCQKYNSAPFTFGPGTKVDIKR
notes: Human hybridoma IgG (XenoMouse); also called x5.56
B10: mAb 5.28.1 (antibody, V domains shown)
VH: EVQLVESGGIVVQPGGSLRLSCAASGFTFDDYTMHWVRQTPGKGLEWVSLISWDGGSTYYADSVKGRFTISRDNSKNSLYLQMNSLRTEDTALYYCAKDIDIAVAGTGFDHWGQGTLVTVSS
VL: EIVMTQSPATLSVSPGERATLSCRASQSVTSNLAWYQQKPGQAPRLLIYGALIRATGIPARFSGSGSGTEFTLTISSLQSEDFAVYYCQQYNNWPFTFGPGTKVDIKR
notes: Human hybridoma IgG (XenoMouse); also called x5.28
B11: mAb 5.52.1 (antibody, V domains shown)
VH: QVQLVESGGGVVQPGRSLRLSCAASGFTFSSYGMHWVRQAPGKGLEWVAVRWYDESNKYYADSVKGRFTISRDNSKNTLYLQMNSLRAEDTAVYYCARDPFETGTTFDYWGQGTLVTVSS
VL: DIQMTQSPSSVSASVGDRVTITCRASQGISSWLAWYQQKPGKAPKLLIYAVSSLESGVPSRFSGSGSGTDFTLTISSLQPEDFATYYCQQALTFGGGTKVEIKR
notes: Human hybridoma IgG (XenoMouse); the line 5.52 has entries of its own (347, 349; light chain L2) that differ from the clone 5.52.1 (L5); also called x5.52
B12: mAb 3.31.2 (antibody, V domains shown)
VH: EVQLVESGGGLVQPGGSLRLSCAASGFTFSSYWMSWVRQAPGKGLEWVANIKQDGSDKYYVDSVKGRFTISRDNAKNSLYLRMNSLRAEDTAVFYCARDMGSGWFDYWGQGTLVTVSS
VL: B2 VL with I2V, L29V, I30G, F49Y, Y87C, H89Q, N93H
notes: Human hybridoma IgG (XenoMouse); also called x3.31
B13: mAb 3.19.3 (antibody, V domains shown)
VH: QVQLVESGGGVVQPGRSLRLSCAASGFTFTNYGMHWGRQAPGKGLEWVAVISHDGNNKYYVDSVKGRFTISRDNSKNTLYLQMNSLRAEDTAVYYCAREGIDFWSGLNWFDPWGQGTLVTVSS
VL: EIVLTQSPGTLSLSPGERATLSCRASQSITGSYLAWYQQKPGQAPRLLICGASSWATGIPDRFSGSGSGTDFTLTISRLEPEDFAVYYCQQYSSSPITFGQGTRLEIKR
notes: Human hybridoma IgG (XenoMouse); also called x3.19

Each binder was assayed against T1, mouse Angiopoietin-2 (assay: ELISA, recombinant mouse Ang-2).

binding result | Binder
no binding | B1
no binding | B2
no binding | B3
no binding | B4
no binding | B5
no binding | B6
no binding | B7
no binding | B8

The binders below were run against T2, human Ang-2 H375Q (assay: ELISA).

% of binding to human Ang-2 | Binder
100% | B9
100% | B10
100% | B1
100% | B11
100% | B2
100% | B3
100% | B4
100% | B12
100% | B5
100% | B6
100% | B7
100% | B8
100% | B13

The binders below were run against T3, human Angiopoietin-1 (assay: capture ELISA).
Description: The binding of the top 27 human monoclonal antibodies was detected with a HRP-conjugated goat anti-human antibody, followed by colorimetric horseradish peroxidase substrate (Enhanced K-Blue TMB substrate Neogen Corporation). The absorbance of each well of the ELISA plates was measured at 450 nm on a microplate autoreader.

binding result | Binder
no binding | B9
no binding | B10
no binding | B1
no binding | B2
no binding | B3
no binding | B4
no binding | B12
no binding | B5
no binding | B6
no binding | B7

Each binder was assayed against T4, human Angiopoietin-2 (assay: Biacore, mAb captured).
Description: The label-free surface plasmon resonance (SPR), or Biacore, was utilized to measure the antibody affinity to the antigen. For this purpose, a high-density goat anti-human antibody surface over a CM5 Biacore chip was prepared using routine amine coupling. All the purified mAbs were diluted to approximately 8 μg/ml in HBS-P running buffer containing 100 μg/ml BSA and 10 mg/mL carboxymethyldextran. Each mAb was captured on a separate surface using a 42-second contact time, and a 5-minute wash for stabilization of the mAb baseline.
Data were fit globally to a 1:1 interaction model to determine the binding kinetics.

Kd | kon | koff | Binder
≤ 0.052 nM | 190000 M⁻¹ s⁻¹ | – | B9
≤ 0.04 nM | 250000 M⁻¹ s⁻¹ | – | B10
0.744 nM | 150000 M⁻¹ s⁻¹ | 0.00011 s⁻¹ | B1
≤ 0.75 nM | 13000 M⁻¹ s⁻¹ | – | B11
≤ 0.147 nM | 68000 M⁻¹ s⁻¹ | – | B2
≤ 0.047 nM | 210000 M⁻¹ s⁻¹ | – | B3
≤ 0.037 nM | 270000 M⁻¹ s⁻¹ | – | B4
≤ 0.051 nM | 190000 M⁻¹ s⁻¹ | – | B12
≤ 0.066 nM | 150000 M⁻¹ s⁻¹ | – | B5
0.581 nM | 150000 M⁻¹ s⁻¹ | 8.7e-05 s⁻¹ | B6
≤ 0.065 nM | 150000 M⁻¹ s⁻¹ | – | B7
≤ 0.033 nM | 300000 M⁻¹ s⁻¹ | – | B8
≤ 0.111 nM | 90000 M⁻¹ s⁻¹ | – | B13
